The values below come from patent US20040053370A1.

Several values for one entry are separate records, joined by “and”; a condition that tells them apart may be missing. Equal entries are not always repeated.

In this assay the target is GLP-1 receptor. Briefly: cell-based or functional assay.

In the case of “Val^8-Trp^16-Glu^22-Val^25-GLP-1(7-37)OH (peptide)”, the GLP-1 Receptor Activation (fold of GLP-1(7-37)OH) was 2.07.

With “Gly^8-GLP-1-IgG1 (from UniProt P01857 99-330) (Fc fusion)”, the In Vitro Activity (% of Val^8-GLP-1) (% of Val^8-GLP-1) was determined as 3.3. On to “Val^8-Lys^33-Asn^34-GLP-1(7-37)OH (peptide)”, for which the GLP-1 Receptor Activation (fold of GLP-1(7-37)OH) worked out at 0.09.

Take “Val^8-Trp^16-Glu^22-Ile^33-GLP-1(7-37)OH (peptide)”: the GLP-1 Receptor Activation (fold of GLP-1(7-37)OH) amounted to 1.93. Consider “Val^8-Glu^22-Val^25-Ile^33-GLP-1(7-37)OH (peptide)”, for which the GLP-1 Receptor Activation (fold of GLP-1(7-37)OH) is 2.3 and 2.73 and 3.15.
